The target in data set [1] is p53 core domain I195T I195T (UniProt P04637). The data set can be described thus: FP.
Data set [2] deals with p53 core domain wild-type (UniProt P04637). The data set can be described thus: FP. The conditions noted are these: wild-type value quoted for comparison; CDB3 did not affect wild-type DNA binding.

As for Gadd45 30-mer DNA, the Kd in data set [1] (after 1 h at 10 C with 100 uM CDB3 peptide) came to 1000 nM; in data set [1] (no peptide, 10 C incubation, 1:1 binding fit), 6000 nM; in data set [2], 800 nM.

Usually Kd stands for the concentration at which binding is half-saturated.

These data come from patent US20050008653.
